In patent publication WO2021212049A2:

How the values were obtained:
[1] = molecular target: Mammalian SARS-CoV2 RBD (residues 331-524) with C-terminal 6XHis Tag (SARS-CoV-2) (UniProt P0DTC2); experiment: ELISA on coated antigen, anti-human IgG-HRP
[2] = molecular target: untagged SARS-CoV-2 RBD expressed in E. coli BL21(DE3) and oxidatively refolded (RBDWT) (SARS-CoV-2) (UniProt P0DTC2); experiment: BLI, RBD expressed in E. coli
[3] = molecular target: untagged SARS-CoV-2 RBD expressed in E. coli BL21(DE3) and oxidatively refolded (RBDWT) (SARS-CoV-2) (UniProt P0DTC2); experiment: BLI, RBD expressed in E. coli, 1:1 Langmuir fit

mAb 2B04 (antibody) was tested, and the minimum positive concentration [1] was < 5 µg/mL, the half-life [2] was 23.7 min and the Kd [3] was 1.05 nM.
